According to patent publication US20150004162A1 (I2 PHARMACEUTICALS, published 2015):
Numbering of substitutions follows the chain as printed.

T1: human DR4 (human, UniProt O00220 24-239, limits assumed)
T1 construct: Recombinant DR4 coated on ELISA wells; also called death receptor 4; TRAIL-R1
T1 sequence: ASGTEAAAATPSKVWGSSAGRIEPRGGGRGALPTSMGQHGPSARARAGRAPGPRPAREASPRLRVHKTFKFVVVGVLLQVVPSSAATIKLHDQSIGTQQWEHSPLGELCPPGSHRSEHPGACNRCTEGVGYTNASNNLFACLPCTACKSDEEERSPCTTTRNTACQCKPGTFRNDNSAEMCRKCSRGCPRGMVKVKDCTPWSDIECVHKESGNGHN

T2: mouse DR5-Fc (mouse, UniProt Q9QZM4 53-177, limits assumed)
T2 construct: also called mouse death receptor; not shown: Fc part
T2 sequence (looked up): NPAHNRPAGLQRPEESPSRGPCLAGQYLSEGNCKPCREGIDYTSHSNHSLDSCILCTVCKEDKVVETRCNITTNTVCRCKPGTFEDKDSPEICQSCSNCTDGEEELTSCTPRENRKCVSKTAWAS

T3: DR4 on Ramos cells (human, UniProt O00220 24-468)
T3 sequence (looked up): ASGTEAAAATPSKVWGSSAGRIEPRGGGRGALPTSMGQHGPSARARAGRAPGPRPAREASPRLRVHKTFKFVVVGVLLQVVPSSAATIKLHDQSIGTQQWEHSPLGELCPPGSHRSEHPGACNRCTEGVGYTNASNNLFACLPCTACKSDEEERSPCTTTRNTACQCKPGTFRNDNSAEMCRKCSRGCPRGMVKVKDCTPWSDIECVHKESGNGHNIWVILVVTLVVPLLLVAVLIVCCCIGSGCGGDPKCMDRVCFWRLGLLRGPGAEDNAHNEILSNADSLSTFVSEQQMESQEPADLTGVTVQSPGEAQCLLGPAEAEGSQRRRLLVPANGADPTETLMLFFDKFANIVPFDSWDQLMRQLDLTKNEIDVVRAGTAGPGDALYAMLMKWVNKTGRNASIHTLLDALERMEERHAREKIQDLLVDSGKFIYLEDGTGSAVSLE

T4: DcR1 (human, UniProt O14798 24-159, limits assumed)
T4 construct: Recombinant protein coated on wells; also called decoy receptor DcR1
T4 sequence: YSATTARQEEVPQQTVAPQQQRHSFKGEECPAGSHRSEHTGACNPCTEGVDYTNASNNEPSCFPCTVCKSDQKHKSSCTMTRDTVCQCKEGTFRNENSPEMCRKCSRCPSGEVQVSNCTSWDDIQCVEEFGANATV

T5: DcR2 (human, UniProt Q9UBN6 56-189, limits assumed)
T5 construct: Recombinant protein coated on wells; also called decoy receptor DcR2
T5 sequence: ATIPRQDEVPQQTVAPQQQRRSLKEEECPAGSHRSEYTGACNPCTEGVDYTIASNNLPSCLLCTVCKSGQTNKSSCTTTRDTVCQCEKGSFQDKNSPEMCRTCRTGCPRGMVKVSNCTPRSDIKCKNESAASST

T6: Rhesus (NHP-2) DR4-Fc (Rhesus, UniProt F6TP00 24-239)
T6 construct: also called Rhesus DR4-Fc
T6 sequence: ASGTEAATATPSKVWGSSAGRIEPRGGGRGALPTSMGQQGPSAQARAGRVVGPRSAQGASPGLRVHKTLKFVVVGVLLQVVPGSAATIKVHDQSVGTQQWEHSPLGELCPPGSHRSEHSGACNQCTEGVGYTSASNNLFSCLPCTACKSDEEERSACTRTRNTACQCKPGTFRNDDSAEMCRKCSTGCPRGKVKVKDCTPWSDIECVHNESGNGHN

B1: 3631-G09 bivalent SBP (other)
VH: EVQLVESGGGLVKPGGSLRLSCAASGFTFSTYGMHWVRQAPGKGLEWVAGINYSGNNKYYADSVKGRFTISRDNAKNSLYLQMNSLRAEDTAVYYCARDHSTWLSRHLDYWGQGTLVTVSS
surrogate light: QPVLHQPPAMSSALGTTIRLTCTLRNDHDIGVYSVYWYQQRPGHPPRFLLRYFSQSDKSQGPQVPPRFSGSKDVARNRGYLSISELQPEDEAMYYCAMGARSSVTHVFGSGTQLTVLSQPKATPSVTLFPPSSEELQANKATLVCLMNDFYPGILTVTWKADGTPITQGVEMTTPSKQSNNKYAASSYLSLTPEQWRSRRSYSCQVMHEGSTVEKTVAPAECS
notes: IgG1-like surroglobulin: full length heavy chain paired with surrogate light chain fusion 1, made in HEK293, Protein A purified; also called SL231; SL-231; copies: 2 + 2
B2: 3706-A02 (SL466) (other)
VH: B1 VH with H100S, W103T, L104R, S105T, H107A
light: B1 surrogate light
notes: Bivalent SBP (SgG); also called SgG

Experiments:
[1] = target: T1, human DR4; assay: ELISA, half-log dilutions on wells coated with 1 microgram/ml human DR4, anti-human Fc HRP
From the text: (§1) The bivalent SBP were detected using an anti-human Fc antibody conjugated to HRP.

[2] = target: T7, human DR5 (human, UniProt O14763 52-183, limits assumed); assay: ELISA, half-log dilutions on wells coated with 1 microgram/ml human DR5, anti-human Fc HRP
T7 construct: also called sDR5 (Peprotech); death receptor 5
T7 sequence (O14763 other isoform, or with tags, fused parts or gaps limits assumed): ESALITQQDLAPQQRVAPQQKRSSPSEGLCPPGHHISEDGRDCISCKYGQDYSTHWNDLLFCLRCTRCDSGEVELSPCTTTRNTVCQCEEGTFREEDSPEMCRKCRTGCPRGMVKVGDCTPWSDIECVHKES
From the text: as §1

[3] = target: T2, mouse DR5-Fc; assay: ELISA, 100 ng/well mouse DR5-Fc, 10 nM bivalent SBP, detection HRP-aVpreB
[4] = target: T7, human DR5; assay: antigen ELISA, half-log dilutions on coated human DR5, anti-human Fc-HRP
From the text: as §1

[5] = target: T3, DR4 on Ramos cells; assay: cell-based or functional assay
[6] = target: T1, human DR4; assay: antigen ELISA, half-log dilutions on coated human DR4, anti-human Fc-HRP
From the text: as §1

[7] = target: T8, Rhesus (NHP-2) DR5-Fc (Rhesus); assay: ELISA, wells coated with 1 microgram/ml antigen, half-log dilutions, detection with anti-VpreB-HRP; inset table has no row label, the text calls the values half-maximal binding concentrations; unit from the axis Log[Agent] (nM) [panel D]
T8 construct: also called Rhesus DR5-Fc
From the text: (§2) Streptavidin-HRP or a monoclonal anti-VpreB-HRP conjugated antibody was used for detection and the assay developed with a TMB solution.

[8] = target: T4, DcR1; assay: ELISA, bivalent SBP on TRAIL receptor family proteins [C]
From the text: as §1

[9] = target: T5, DcR2; assay: as above
From the text: as §1

[10] = target: T9, Cynomolgus (NHP-1) DR4-Fc (Cynomolgus); assay: ELISA, wells coated with 1 microgram/ml antigen, half-log dilutions of SgG, detection with anti-VpreB-HRP; unit taken from the axis Lg(nM) [panel A]
T9 construct: also called Cynomolgus DR4-Fc
From the text: as §2

[11] = target: T6, Rhesus (NHP-2) DR4-Fc; assay: ELISA, wells coated with 1 microgram/ml antigen, half-log dilutions, detection with anti-VpreB-HRP; inset table has no row label, the text calls the values half-maximal binding concentrations; unit from the axis Log[Agent] (nM) [panel C]
From the text: as §2

[12] = target: T10, Cynomolgus (NHP-1) DR5-Fc (Cynomolgus); assay: ELISA, wells coated with 1 microgram/ml antigen, half-log dilutions of SgG, detection with anti-VpreB-HRP; unit taken from the axis Lg(nM) [panel B]
T10 construct: also called Cynomolgus DR5-Fc
From the text: as §2

Binder | EC50 [1] [nM] | EC50 [2] [nM] | binding result [3] | EC50 [4] [nM] | EC50 (nM), inhibition of Ramos cell proliferation (WST-1), SgG cross-linked with anti-human-Fc antibody or Protein G [5] [nM] | EC50 [6] [nM] | EC50 [7] [nM] | binding result [8] | binding result [9] | EC50 [10] [nM] | EC50 [11] [nM] | EC50 [12] [nM]
B1 | 0.0298 | 0.0502 | no binding (tested: 10 nM) | 0.05 | 0.498 | ~0.03 | 0.627 | no binding (tested: 1000 nM) | no binding (tested: 1000 nM) |  |  | 
B2 |  |  |  |  |  |  | 0.294 |  |  | 6.36 | 146 | 0.273
